Source: US20120039802A1 (published 2012)
fluorescein = fluorescein label on the side chain of the C-terminal Lys

Experiments:
mouse cMet = target: T1, mouse cMet (mouse, UniProt P16056 25-931, limits assumed); test: fluorescence polarization
T1 construct: Construct not described; also called Kd (mouse) target

[1] = target: T2, cMet-Fc fusion protein (extracellular domain of the cMet receptor expressed as an Fc-fusion protein) (human, UniProt P08581 25-932); test: fluorescence polarization, 20 nM fluorescein peptide, cMet-Fc varied
T2 construct: extracellular domain; also called soluble cMet-Fc-fusion protein; soluble cMet receptor; not shown: Fc part
Procedure: Fluorescence anisotropy measurements were performed in 384-well microplates in a volume of 10 μL in binding buffer (PBS, 0.01% Tween-20, pH 7.5) using a Tecan Polarion fluorescence polarization plate reader ([…]). […] Binding mixtures were equilibrated for 10 minutes in the microplate at 30 C before measurement. The observed change in anisotropy was fit to the equation below via nonlinear regression to obtain the apparent KD. This equation (1) assumes that the synthetic peptide and cMet form a reversible complex in solution with 1:1 stoichiometry.

T1 sequence (P16056 25-931 limits assumed): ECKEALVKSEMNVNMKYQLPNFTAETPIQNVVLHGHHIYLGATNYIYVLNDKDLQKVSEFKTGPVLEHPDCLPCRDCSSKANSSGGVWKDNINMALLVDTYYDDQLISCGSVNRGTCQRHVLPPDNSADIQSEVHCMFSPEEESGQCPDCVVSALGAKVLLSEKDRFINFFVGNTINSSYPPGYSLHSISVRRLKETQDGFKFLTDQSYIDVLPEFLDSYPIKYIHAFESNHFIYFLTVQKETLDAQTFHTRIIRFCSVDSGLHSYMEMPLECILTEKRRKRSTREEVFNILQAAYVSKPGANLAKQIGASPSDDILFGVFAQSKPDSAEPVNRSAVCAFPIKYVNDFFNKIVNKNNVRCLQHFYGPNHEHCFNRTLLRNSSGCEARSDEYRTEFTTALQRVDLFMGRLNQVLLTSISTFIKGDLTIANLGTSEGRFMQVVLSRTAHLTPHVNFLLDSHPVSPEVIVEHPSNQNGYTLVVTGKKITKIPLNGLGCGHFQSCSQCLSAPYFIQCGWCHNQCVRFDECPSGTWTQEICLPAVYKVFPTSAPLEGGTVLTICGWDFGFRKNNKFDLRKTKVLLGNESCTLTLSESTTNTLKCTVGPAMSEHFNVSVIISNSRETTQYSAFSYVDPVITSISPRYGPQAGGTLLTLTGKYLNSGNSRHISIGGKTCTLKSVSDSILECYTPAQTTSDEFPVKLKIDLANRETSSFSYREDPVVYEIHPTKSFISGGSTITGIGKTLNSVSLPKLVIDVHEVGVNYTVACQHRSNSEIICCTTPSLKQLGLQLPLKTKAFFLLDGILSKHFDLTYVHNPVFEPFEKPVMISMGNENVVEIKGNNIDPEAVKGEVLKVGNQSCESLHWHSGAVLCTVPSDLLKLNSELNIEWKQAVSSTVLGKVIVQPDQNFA
T2 sequence (P08581 25-932): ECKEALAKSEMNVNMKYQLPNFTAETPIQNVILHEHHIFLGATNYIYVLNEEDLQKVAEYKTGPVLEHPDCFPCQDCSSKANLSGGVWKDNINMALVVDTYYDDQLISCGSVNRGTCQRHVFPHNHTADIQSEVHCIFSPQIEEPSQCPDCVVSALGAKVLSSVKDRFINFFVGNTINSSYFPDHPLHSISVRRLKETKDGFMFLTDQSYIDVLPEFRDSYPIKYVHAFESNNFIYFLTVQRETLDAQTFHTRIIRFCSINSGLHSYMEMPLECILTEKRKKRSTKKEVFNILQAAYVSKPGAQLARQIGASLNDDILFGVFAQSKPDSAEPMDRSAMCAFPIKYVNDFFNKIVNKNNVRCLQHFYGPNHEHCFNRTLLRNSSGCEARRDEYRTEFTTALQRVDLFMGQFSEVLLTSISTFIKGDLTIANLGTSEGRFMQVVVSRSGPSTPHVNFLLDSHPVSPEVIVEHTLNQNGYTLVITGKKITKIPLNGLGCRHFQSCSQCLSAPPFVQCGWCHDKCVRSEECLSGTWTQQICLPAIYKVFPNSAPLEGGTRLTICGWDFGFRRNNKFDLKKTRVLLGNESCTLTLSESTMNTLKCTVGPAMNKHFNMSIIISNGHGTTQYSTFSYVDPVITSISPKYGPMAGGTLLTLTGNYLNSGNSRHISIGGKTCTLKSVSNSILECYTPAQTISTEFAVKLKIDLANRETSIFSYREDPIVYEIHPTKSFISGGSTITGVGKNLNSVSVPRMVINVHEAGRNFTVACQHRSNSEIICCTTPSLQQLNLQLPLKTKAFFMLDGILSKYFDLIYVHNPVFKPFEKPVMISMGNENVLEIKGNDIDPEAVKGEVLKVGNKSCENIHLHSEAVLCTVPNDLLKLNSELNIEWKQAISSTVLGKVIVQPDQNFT

binding result (mouse cMet)	Kd [1]	Binder
no binding	1150 nM	Ac-GDYSECFFEPDSFEVKCYDRDPGGGK(fluorescein)-NH2 (cysteine pairing not given here) [545-H12 synthetic fluorescein-labeled peptide (SEQ ID NO: 399)]
no binding	220 nM	Ac-GSFFPCWRIDRFGYCHANAPGGGK(fluorescein)-NH2 (cysteine pairing not given here) [551-H10 synthetic fluorescein-labeled peptide (SEQ ID NO: 370)]
no binding		Ac-GSPEMCMMFPFLYPCNHHAPGGGK(fluorescein)-NH2 (cysteine pairing not given here) [548-F07 synthetic fluorescein-labeled peptide (SEQ ID NO: 369)]
